Measurements: patent US20150203577A1 (Chugai, published 2015)
Substitutions are numbered along the chain they refer to.

T1: mouse FcγRII (mouse, UniProt P08101 30-210)
T1 construct: Extracellular domain with C-terminal His tag; also called mFcγRII; mFcgRII
T1 sequence: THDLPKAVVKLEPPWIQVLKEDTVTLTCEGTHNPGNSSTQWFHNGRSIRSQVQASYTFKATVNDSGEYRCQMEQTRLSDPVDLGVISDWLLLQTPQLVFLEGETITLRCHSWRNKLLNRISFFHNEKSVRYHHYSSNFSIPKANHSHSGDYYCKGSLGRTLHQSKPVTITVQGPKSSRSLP

T2: mouse FcγRIII (mouse, UniProt P08508 31-215)
T2 construct: Extracellular domain with C-terminal His tag; also called mFcγRIII; mFcgRIII
T2 chain: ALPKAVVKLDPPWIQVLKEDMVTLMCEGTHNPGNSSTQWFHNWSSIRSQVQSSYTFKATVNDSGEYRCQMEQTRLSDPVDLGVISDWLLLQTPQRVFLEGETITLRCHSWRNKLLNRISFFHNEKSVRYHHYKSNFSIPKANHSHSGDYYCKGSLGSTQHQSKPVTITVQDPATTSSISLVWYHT

T3: mouse FcγRII (mouse, UniProt P08101 30-210)
T3 construct: also called mFcγRII; mFcgRII
T3 sequence: T1 sequence

T4: mouse FcγRIII (mouse, UniProt P08508 31-215)
T4 construct: also called mFcγRIII; mFcgRIII
T4 chain: T2 chain

B1: MB864 (antibody, mouse IgG1, kappa)
heavy: QVQLQESGPGLVKPSETLSLTCAVSGHSISHDHAWSWVRQPPGEGLEWIGFISYSGITNYNPSLQGRVTISRDNSKNTLYLQMNSLRAEDTAVYYCARSLARTTAMDYWGEGTLVTVSSAKTTPPSVYPLAPGSAAQTNSMVTLGCLVKGYFPEPVTVTWNSGSLSSGVHTFPAVLQSDLYTLSSSVTVPSSTWPSETVTCNVAHPASSTKVDKKIVPRDCGCKPCICEPNEVELVFIFPPKPKDVLTITLTPKVTCVVVDISDDDPEVQFSWFVDDVEVHTAQTQPREEQFNSTFRSVSELPIMHQDWLNGKEFKCRVNSDGFPAPIERTISKTKGRPKAPQVYTIPPPKEQMAKDKVSLTCMITDFFPEDITVEWQWNGQPAENYKNTQPIMDTDGSYFVYSKLNVQKSNWEAGNTFTCSVLHEGLHNHHTEKSLSHSPGK
light: not shown
notes: CH name; VH H237 + CH, L chain MRAL-k0; copies: 2 + 2
B2: MB865 (antibody, mouse IgG1, kappa)
heavy: B1 heavy with Q291L, R330K
light: not shown
notes: as for B1
B3: H237-MB638/MRAL-k0 (antibody, mouse IgG1, kappa)
heavy: B1 heavy with E229I, N231A, L235N, D264K, D322A, G323A, R330K
light: not shown
notes: mouse IgG1 CH variant; copies: 2 + 2
B4: H237-MB607/MRAL-k0 (antibody, mouse IgG1, kappa)
heavy: B1 heavy with E229T, P230V, N231P, V233E, L235E, D264K, D322A, G323A, R330K
light: not shown
notes: as for B3
B5: H237-MB702/MRAL-k0 (antibody, mouse IgG1, kappa)
heavy: B1 heavy with E229T, P230A, N231Y, L235N, D264K, D322A, G323A, R330K
light: not shown
notes: as for B3
B6: H237-MB617/MRAL-k0 (antibody, mouse IgG1, kappa)
heavy: QVQLQESGPGLVKPSETLSLTCAVSGHSISHDHAWSWVRQPPGEGLEWIGFISYSGITNYNPSLQGRVTISRDNSKNTLYLQMNSLRAEDTAVYYCARSLARTTAMDYWGEGTLVTVSSAKTTPPSVYPLAPGSAAQTNSMVTLGCLVKGYFPEPVTVTWNSGSLSSGVHTFPAVLQSDLYTLSSSVTVPSSTWPSETVTCNVAHPASSTKVDKKIVPRDCGCKPCICTVPEESDVDIFPPKPKDVLTITLTPKVTCVVVDISKDDPEVQFSWFVDDVEVHTAQTQPREEQFNSTFRSVSELPIMHQDWLNGKEFKCRVNSAAFPAPIEKTISKTKGRPKAPQVYTIPPPKEQMAKDKVSLTCMITDFFPEDITVEWQWNGQPAENYKNTQPIMDTDGSYFVYSKLNVQKSNWEAGNTFTCSVLHEGLHNHHTEKSLSHSPGK
light: not shown
notes: as for B3
B7: H237-MB752/MRAL-k0 (antibody, mouse IgG1, kappa)
heavy: B1 heavy with D264K, S294L, D322A, G323A, R330K
light: not shown
notes: as for B3
B8: H237-MB748/MRAL-k0 (antibody, mouse IgG1, kappa)
heavy: B1 heavy with S263A, D264K, D322A, G323A, R330K
light: not shown
notes: as for B3
B9: H237-MB703/MRAL-k0 (antibody, mouse IgG1, kappa)
heavy: B6 heavy with T229E, V230A, E233V, S234E, D235N, D237F
light: not shown
notes: as for B3
B10: H237-MB641/MRAL-k0 (antibody, mouse IgG1, kappa)
heavy: B1 heavy with P230A, N231Y, L235Y, D264K, D322A, G323A, R330K
light: not shown
notes: as for B3
B11: H237-MB731/MRAL-k0 (antibody, mouse IgG1, kappa)
heavy: B1 heavy with N231A, V233E, D264K, D322A, G323A, R330K
light: not shown
notes: as for B3
B12: H237-MB611/MRAL-k0 (antibody, mouse IgG1, kappa)
heavy: B6 heavy with S234D, D235E, D237F
light: not shown
notes: as for B3
B13: H237-MB693/MRAL-k0 (antibody, mouse IgG1, kappa)
heavy: B6 heavy with V230D, P231Y, E233V, S234E, D235Y, D237F
light: not shown
notes: as for B3
B14: H237-MB715/MRAL-k0 (antibody, mouse IgG1, kappa)
heavy: B1 heavy with L235V, D264K, D322A, G323A, R330K
light: not shown
notes: as for B3
B15: H237-MB732/MRAL-k0 (antibody, mouse IgG1, kappa)
heavy: B1 heavy with V233E, D264K, D322A, G323A, R330K
light: not shown
notes: as for B3
B16: H237-MB624/MRAL-k0 (antibody, mouse IgG1, kappa)
heavy: B1 heavy with P230D, N231Y, D264K, D322A, G323A, R330K
light: not shown
notes: as for B3
B17: H237-MB633/MRAL-k0 (antibody, mouse IgG1, kappa)
heavy: B1 heavy with P230D, N231Y, L235N, D264K, D322A, G323A, R330K
light: not shown
notes: as for B3
B18: H237-MB687/MRAL-k0 (antibody, mouse IgG1, kappa)
heavy: B1 heavy with N231P, D264K, D322A, G323A, R330K
light: not shown
notes: as for B3
B19: H237-MB690/MRAL-k0 (antibody, mouse IgG1, kappa)
heavy: B6 heavy with V230P, P231A, E233V, S234E, D235Y, D237F
light: not shown
notes: as for B3
B20: H237-MB626/MRAL-k0 (antibody, mouse IgG1, kappa)
heavy: B1 heavy with P230T, N231Y, D264K, D322A, G323A, R330K
light: not shown
notes: as for B3
B21: H237-MB692/MRAL-k0 (antibody, mouse IgG1, kappa)
heavy: B1 heavy with N231P, L235Y, D264K, D322A, G323A, R330K
light: not shown
notes: as for B3
B22: H237-MB618/MRAL-k0 (antibody, mouse IgG1)
heavy: B6 heavy with S234D, D237F
light: not shown
notes: as for B3
B23: H237-MB643/MRAL-k0 (antibody, mouse IgG1, kappa)
heavy: B1 heavy with P230N, N231Y, L235Y, D264K, D322A, G323A, R330K
light: not shown
notes: as for B3
B24: H237-MB637/MRAL-k0 (antibody, mouse IgG1, kappa)
heavy: B1 heavy with N231A, L235N, D264K, D322A, G323A, R330K
light: not shown
notes: as for B3
B25: H237-MB716/MRAL-k0 (antibody, mouse IgG1, kappa)
heavy: B1 heavy with L235I, D264K, D322A, G323A, R330K
light: not shown
notes: as for B3
B26: H237-MB647/MRAL-k0 (antibody, mouse IgG1, kappa)
heavy: B1 heavy with E229I, N231A, L235Y, D264K, D322A, G323A, R330K
light: not shown
notes: as for B3
B27: H237-MB718/MRAL-k0 (antibody, mouse IgG1, kappa)
heavy: B1 heavy with L235T, D264K, D322A, G323A, R330K
light: not shown
notes: as for B3

What follows are binders tested against T1, mouse FcγRII (assay: SPR (Biacore T200); KD of H237-MB630/MRAL-k0 / KD of variant).

Relative mFcγRII-binding activity (MB630 = 1) [fold]	Binder
10.4	B1
7.91	B2

Biological target: T2, mouse FcγRIII
Experiment: as above

Relative mFcγRIII-binding activity (MB630 = 1) [fold]	Binder
19.9	B1
18.3	B2

The binders below were run against T1, mouse FcγRII (assay: SPR (Biacore T200); KD of H237-mIgG1/MRAL-k0 / KD of variant).

relative mFcγRII-binding activity (mIgG1 = 1) [fold]	Binder
110	B1
83.8	B2

Biological target: T2, mouse FcγRIII
Experiment: as above

relative mFcγRIII-binding activity (mIgG1 = 1) [fold]	Binder
3.63	B1
3.34	B2

The binders below were run against T3, mouse FcγRII (assay: SPR (Biacore), antibody captured on Protein L, mFcγR as analyte).
Protocol: (§1) Each altered antibody was analyzed for its interaction with each Fcγ receptor prepared above using Biacore T100 (GE Healthcare Japan Corp.), Biacore T200 (GE Healthcare Japan Corp.), Biacore A100, or Biacore 4000. The running buffer used was HBS-EP+ (GE Healthcare Japan Corp.). The assay temperature was set to 25° C. The sensor chips used were chips prepared by immobilizing Protein L (ACTIGEN or BioVision) onto Series S Sensor Chip CM5 (GE Healthcare Japan Corp.) or Series S Sensor Chip CM4 (GE Healthcare Japan Corp.) by the amine coupling method.
(§2) In order to calculate the KD value of each altered antibody for FcγR, kinetic analysis was conducted according to the following method: first, the antibody of interest was captured onto any of these chips and allowed to interact with mFcγR diluted with a running buffer. For the obtained sensorgram, the assay results were globally fit into the 1:1 Langmuir binding model using Biacore Evaluation Software to calculate an association rate constant ka (L/mol/s) and a dissociation rate constant kd (1/s). From these values, the dissociation constant KD (mol/L) was calculated.

Kd [nM]	relative mFcγRII-binding activity (mIgG1 = 1) [fold]	Binder
280	0.83	B3
67.9	3.14	B4
339	0.96	B5
255	0.84	B6
35.1	5.24	B7
17.9	10.3	B8
345	0.94	B9
143	1.62	B10
238	1.13	B11
192	1.11	B12
267	1.22	B13
236	1.14	B14
321	0.84	B15
263	0.88	B16
75.8	3.05	B17
345	0.94	B18
204	1.6	B19
261	0.89	B20
186	1.75	B21
156	1.63	B22
126	1.83	B23
80.7	2.87	B24
52.8	5.07	B25
200	1.16	B26
247	1.08	B27

Biological target: T4, mouse FcγRIII
Experiment: as above
Protocol: as §1, §2

Kd [nM]	relative mFcγRIII-binding activity (mIgG1 = 1) [fold]	Binder
3380	0.1	B3
1770	0.18	B4
3520	0.14	B5
2100	0.15	B6
3280	0.11	B7
2060	0.18	B8
4900	0.1	B9
2100	0.15	B10
15300	0.03	B11
3420	0.09	B12
5410	0.09	B13
11900	0.04	B14
13700	0.03	B15
2870	0.11	B16
1640	0.2	B17
5320	0.1	B18
2710	0.19	B19
2370	0.14	B20
4440	0.12	B21
2730	0.13	B22
2000	0.16	B23
1890	0.17	B24
6150	0.08	B25
2800	0.12	B26
5560	0.08	B27
